Consider one protein from patent publication US6586222.

In this series the target is 35S-cysteine-labelled 26 kD proTNFα (in vitro transcribed/translated).

B1: TNFα convertase purified from HL60 cell membrane fraction (identified as PR-3) (protein)
chain: IVGGHEAQPHSRPYMASLQMRGNPGSHFCGGTLIHPSFVLTAAHCLRDIPQRLVNVVLGAHNVRTQEPTQQHFSVAQVFLNNYDAENKLNDVLLIQLSSPANLSASVATVQLPQQDQPVPHGTQCLAMGWGRVGAHDPPAQVLQELNVTVVTFFCRPHNICTFVPRRKAGICFGDSGGPLICDGIIQGIDSFVIWGCATRLFPDFFTRVALYVDWIRSTLR
B1: the “cleavage of 26 kD proTNFα to the 17 kD mature form” value is reported as “The purified convertase was shown to cleave the 26 kD proTNFα to the 17 kD mature form”.
